Like-named read-outs stand apart in the source and are kept apart here.
What was measured:
Assay in all cases: cross-linking
K140C-apoA-I (human) [1] = target: K140C-apoA-I (human)
K140C-apoA-I (human) [2] = target: K140C-apoA-I (human); remark: listed apart in the source
G129C-apoA-I (human) [3] = target: G129C-apoA-I (human)
G129C-apoA-I (human) [4] = target: G129C-apoA-I (human); remark: listed apart in the source
K118C-apoA-I (human) [5] = target: K118C-apoA-I (human) (UniProt P02647)
K118C-apoA-I (human) [6] = target: K118C-apoA-I (human) (UniProt P02647); remark: listed apart in the source

K140C-apoA-I (natural protein)
percent homodimer (K140C-apoA-I (human) [1]): 65%
percent homodimer (K140C-apoA-I (human) [2]): 41%

G129C-apoA-I (natural protein)
percent homodimer (G129C-apoA-I (human) [3]): 38%
percent homodimer (G129C-apoA-I (human) [4]): 22%

K118C-apoA-I (from UniProt P02647 19-267) (natural protein)
percent homodimer (K118C-apoA-I (human) [5]): 17%
percent homodimer (K118C-apoA-I (human) [6]): 4%
